Consider 2 molecules from paper PMC10173331.

Where two headings read alike, the source gives them in different places.

Series [1] concerns the target T1, clusterin (apolipoprotein J) (UniProt P10909 23-449). The series is described as follows: AuNP colorimetric aggregation assay.
Series [2] deals with T1, clusterin (apolipoprotein J). The series is described as follows: AuNP colorimetric aggregation assay. This is another data set of the same source.

T1 sequence (P10909 23-449): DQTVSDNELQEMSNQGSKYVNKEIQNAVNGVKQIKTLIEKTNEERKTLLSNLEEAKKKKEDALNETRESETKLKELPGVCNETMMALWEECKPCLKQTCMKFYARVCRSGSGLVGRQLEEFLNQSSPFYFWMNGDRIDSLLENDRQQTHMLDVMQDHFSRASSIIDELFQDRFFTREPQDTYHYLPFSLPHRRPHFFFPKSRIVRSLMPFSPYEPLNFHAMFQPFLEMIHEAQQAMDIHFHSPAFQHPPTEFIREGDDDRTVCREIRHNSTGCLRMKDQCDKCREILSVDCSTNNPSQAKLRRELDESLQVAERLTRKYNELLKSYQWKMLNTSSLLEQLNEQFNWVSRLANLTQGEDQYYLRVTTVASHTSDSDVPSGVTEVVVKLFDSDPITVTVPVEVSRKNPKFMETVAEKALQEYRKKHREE

B1: clusterin 1 (ssDNA)
DNA: CTCCTCTGACTGTAACCACGTTAGGCGAGAACATGTCAGTACGTCGACGTTCTACTTGCTGCATAGGTAGTCCAGAAGCC
In the case of B1, in series [1], the binding result is given as “binds”.
Turning to CTCCTCTGACTGTAACCACGTTAGGCGAGAACATGTCAGT (ssDNA) [clusterin 2], the binding result in series [2] is “binds”.
